Measured values from patent US20140329995A1.

What was measured:
[1] = target: Gammanorm 165 mg/ml (Octapharma), human polyclonal IgG (human); assay: column breakthrough, ligand on agarose base matrix A, ligand density […], residence time 6.0 min, 1 mg/ml IgG
[2] = target: Gammanorm 165 mg/ml (Octapharma), human polyclonal IgG (human); assay: column breakthrough, ligand on agarose base matrix A, ligand density 14.5 mg/ml, residence time 2.4 min, 1 mg/ml IgG
[3] = target: Gammanorm 165 mg/ml (Octapharma), human polyclonal IgG (human); assay: column breakthrough, ligand on agarose base matrix A, ligand density 14.5 mg/ml, residence time 6.0 min, 1 mg/ml IgG
[4] = target: Gammanorm 165 mg/ml (Octapharma), human polyclonal IgG (human); assay: column breakthrough, ligand on agarose base matrix B, ligand density 11.3 mg/ml, residence time 2.4 min, 1 mg/ml IgG
[5] = target: Gammanorm 165 mg/ml (Octapharma), human polyclonal IgG (human); assay: column breakthrough, ligand on agarose base matrix A, ligand density 14.5 mg/ml, residence time 10.0 min, 1 mg/ml IgG
[6] = target: Gammanorm 165 mg/ml (Octapharma), human polyclonal IgG (human); assay: column breakthrough, ligand on agarose base matrix B, ligand density 11.3 mg/ml, residence time 6.0 min, 1 mg/ml IgG
[7] = target: Gammanorm 165 mg/ml (Octapharma), human polyclonal IgG (human); assay: column breakthrough, ligand on agarose base matrix A, ligand density […], residence time 2.4 min, 1 mg/ml IgG
[8] = target: Gammanorm 165 mg/ml (Octapharma), human polyclonal IgG (human); assay: column breakthrough, ligand on agarose base matrix A, ligand density […], residence time 10.0 min, 1 mg/ml IgG

Substance: Mutant Z(N23T)6: ligand hexamer containing six copies of protein Z, each containing the N23T substitution (designed binder)
- Qb10 (dynamic binding capacity at 10% breakthrough) [1]: 53.4 mg/ml resin
- Qb80 (dynamic binding capacity at 80% breakthrough) [1]: 68.7 mg/ml resin
- Qb10 (dynamic binding capacity at 10% breakthrough) [2]: 31.2 mg/ml resin
- Qb80 (dynamic binding capacity at 80% breakthrough) [2]: 80.6 mg/ml resin
- Qb10 (dynamic binding capacity at 10% breakthrough) [3]: 61.8 mg/ml resin
- Qb80 (dynamic binding capacity at 80% breakthrough) [3]: 103 mg/ml resin
- Qb10 (dynamic binding capacity at 10% breakthrough) [4]: 47 mg/ml resin
- Qb80 (dynamic binding capacity at 80% breakthrough) [4]: 76.9 mg/ml resin
- Qb10 (dynamic binding capacity at 10% breakthrough) [5]: 76.7 mg/ml resin
- Qb80 (dynamic binding capacity at 80% breakthrough) [5]: 103 mg/ml resin
- Qb10 (dynamic binding capacity at 10% breakthrough) [6]: 68 mg/ml resin
- Qb80 (dynamic binding capacity at 80% breakthrough) [6]: 82.8 mg/ml resin
- Qb10 (dynamic binding capacity at 10% breakthrough) [7]: 35.1 mg/ml resin
- Qb80 (dynamic binding capacity at 80% breakthrough) [7]: 62.7 mg/ml resin
- Qb10 (dynamic binding capacity at 10% breakthrough) [8]: 64.5 mg/ml resin
- Qb80 (dynamic binding capacity at 80% breakthrough) [8]: 74.5 mg/ml resin
